# Measured values taken from publication PMC8551656, “Discovery of a novel role of tumor suppressor PDCD4 in stimulation of translation termination” (The Journal of Biological Chemistry, 2021).
# B1: GST-tagged programmed cell death 4 protein (PDCD4) (natural protein, human, UniProt Q53EL6-1 1-469, looked up)
# chain: MDVENEQILNVNPADPDNLSDSLFSGDEENAGTEEIKNEINGNWISASSINEARINAKAKRRLRKNSSRDSGRGDSVSDSGSDALRSGLTVPTSPKGRLLDRRSRSGKGRGLPKKGGAGGKGVWGTPGQVYDVEEVDVKDPNYDDDQENCVYETVVLPLDERAFEKTLTPIIQEYFEHGDTNEVAEMLRDLNLGEMKSGVPVLAVSLALEGKASHREMTSKLLSDLCGTVMSTTDVEKSFDKLLKDLPELALDTPRAPQLVGQFIARAVGDGILCNTYIDSYKGTVDCVQARAALDKATVLLSMSKGGKRKDSVWGSGGGQQSVNHLVKEIDMLLKEYLLSGDISEAEHCLKELEVPHFHHELVYEAIIMVLESTGESTFKMILDLLKSLWKSSTITVDQMKRGYERIYNEIPDINLDVPHSYSVLERFVEECFQAGIISKQLRDLCPSRGRKRFVSEGDGGRLKPESY
# notes: human PDCD4, isoform 1, UniProt Q53EL6-1; cDNA cloned into pGEX-6p-1; printed primers run from the start codon to the last codon; Held on glutathione-sepharose by GST in the pull-down; also called GST-PDCD4; recombinant PDCD4; source: E. coli BL21, purified (glutathione-sepharose 4B, eluted with glutathione; HiTrapQ)
# Molecular target: T1, poly(A)-binding protein (PABP) (human, UniProt P11940 1-636)
# T1 construct: source: E. coli BL21, purified (Ni-NTA agarose, ion-exchange chromatography)
# Assay: pull-down; GST-PDCD4 (40 pmol) incubated with PABP (40 pmol) in solution, 20 μl, 1 h at 4 °C, 25 mM Tris-HCl pH 7.5, 10% glycerol, 100 mM KCl, 2.5 mM MgCl2, 2 mM DTT, 0.25 mM spermidine, 0.2 mM GTP; then held on glutathione-sepharose 4B, four washes, release by TEV protease, western blot
# Conditions: both partners purified
# T1 sequence (P11940 whole entry): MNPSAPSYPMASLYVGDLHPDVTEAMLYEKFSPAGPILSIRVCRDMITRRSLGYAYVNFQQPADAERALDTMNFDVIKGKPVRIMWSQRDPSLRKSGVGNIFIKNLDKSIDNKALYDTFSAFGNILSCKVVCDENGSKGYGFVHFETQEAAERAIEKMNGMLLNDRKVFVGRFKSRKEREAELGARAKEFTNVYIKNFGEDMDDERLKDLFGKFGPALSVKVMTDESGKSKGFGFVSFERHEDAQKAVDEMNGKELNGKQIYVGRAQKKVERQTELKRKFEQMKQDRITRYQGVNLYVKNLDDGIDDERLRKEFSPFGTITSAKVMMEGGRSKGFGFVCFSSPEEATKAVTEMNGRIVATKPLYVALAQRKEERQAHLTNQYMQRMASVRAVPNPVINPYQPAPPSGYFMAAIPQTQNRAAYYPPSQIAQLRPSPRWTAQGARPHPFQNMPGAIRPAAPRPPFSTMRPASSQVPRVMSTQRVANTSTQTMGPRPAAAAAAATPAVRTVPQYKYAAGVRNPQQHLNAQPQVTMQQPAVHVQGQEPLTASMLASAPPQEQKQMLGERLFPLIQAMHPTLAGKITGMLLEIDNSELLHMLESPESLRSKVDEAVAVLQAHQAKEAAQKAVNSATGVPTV
binder,measurement,value
B1,binding result,binds
